Columns and labels:
[1] = target: T1, IL-23 (human, p19/p40 heterodimer) (Homo sapiens, UniProt Q9NPF7;P29460 SEQ:20-189,SEQ:23-328); assay: filter; 0.1 mg/mL tRNA, 30 min RT; conditions: tags: R&D Systems, carrier free; label: 5'-32P
Protocol: (§1) Monitoring Progress of rRfY Selection. Dot blot binding assays were performed throughout the selections to monitor the protein binding affinity of the pools. Trace ³²P-labeled RNA was combined with a dilution series of h-IL-23 and incubated at room temperature for 30 minutes in 1×SHMCK (20 mM Hepes, 120 mM NaCl, 5 mM KCl, 1 mM MgCl₂, 1 mM CaCl₂, pH 7.4) plus 0.1 mg/mL tRNA for a final volume of 20 μL. The binding reactions were analyzed by nitrocellulose filtration using a Minifold I dot-blot, 96-well vacuum filtration manifold (Schleicher & Schuell, Keene, N.H.). A three-layer filtration medium was used, consisting (from top to bottom) of Protran nitrocellulose (Schleicher & Schuell), Hybond-P nylon (Amersham Biosciences) and GB002 gel blot paper (Schleicher & Schuell). RNA that is bound to protein is captured on the nitrocellulose filter, whereas the non-protein bound RNA is captured on the nylon filter. The gel blot paper was included simply as a supporting medium for the other filters. Following filtration, the filter layers were separated, dried and exposed on a phosphor screen (Amersham Biosciences, Piscataway, N.J.) and quantified using a Storm 860 Phosphorimager® blot imaging system (Amersham Biosciences).

[2] = target: T1, IL-23 (human, p19/p40 heterodimer); assay: filter; DPBS with Ca and Mg, 0.1 mg/mL tRNA, 30 min RT; conditions: tags: R&D Systems, carrier free; label: 32P
Protocol: The selection progress was monitored using the dot blot sandwich filter binding assay as described in Example 1A. The 5′-³²P-labeled pool RNA was refolded at 90° C. for 3 minutes and cooled to room temperature for 10 minutes. Next, pool RNA (trace concentration) was incubated with h-IL-23 DPBS plus 0.1 mg/mL tRNA for 30 minutes at room temperature and then applied to a nitrocellulose and nylon filter sandwich in a dot blot apparatus (Schleicher and Schuell). The percentage of pool RNA bound to the nitrocellulose was calculated and monitored approximately every 3 rounds with a single point screen (+/−250 nM h-IL-23). Pool KD measurements were measured using a titration of h-IL-23 protein (R&D, Minneapolis, Minn.) and the dot blot apparatus as described above.
The rRmY h-IL-23 selection was enriched for h-IL-23 binding vs. the naïve pool after 4 rounds of selection (data not shown). The selection stringency was increased and the selection was continued for 8 more rounds. […] The rGmH selection was enriched over the naïve pool binding at Round 10. […] FIG. 7 is a binding curve of rRmY and rGmH pool selection binding to h-IL-23. The pools were cloned using TOPO TA cloning kit (Invitrogen, Carlsbad, Calif.) and individual sequences were generated and tested for binding. A single point binding screen was initially performed on all crude rRmY clone transcriptions using a 1:200 dilution, +/−200 nM IL-23, plus 0.1 mg/mL competitor tRNA. […] The 10 point screen was performed using zero to 480 nM IL-23 in 3 fold serial dilutions. Binding curves were generated (KaleidaGraph v. 3.51, Synergy Software) and KDs were estimated by fitting the data to the equation: fraction RNA bound=amplitude[h-IL-23]/KD+[h-IL-23]). […] There was one group of 6 duplicate sequences and 4 pairs of 2 duplicate sequences out of the rRmY clones generated. […] Clones were also tested from 48 crude rGmH clone transcriptions at a 1:200 dilution and 0.1 mg/mL tRNA was used as competitor.

[3] = target: T1, IL-23 (human, p19/p40 heterodimer); assay: filter; 1X SHMCK, 1 mM Mg, 1 mM Ca, 0.1 mg/mL tRNA, RT; conditions: tags: R&D Systems, carrier free; label: 5'-32P
Protocol: as §1
(§2) When a significant positive ratio of binding of RNA in the presence of h-IL-23 versus in the absence of h-IL-23 was seen, the pools were cloned using a TOPO TA cloning kit (Invitrogen, Carlsbad, Calif.) according to the manufacturer's instructions. For the h-IL-23 and X-IL-23 selections, the Round 8 pool templates were cloned, and 32 individual clones from each selections were assayed in a 1-point dot blot screen (+/−75 nM h-IL-23, as well as a separate screen at +/−75 nM h-IL-12). For the PN-IL-23 selection, the Round 10 pool was cloned and sequenced, and 8 unique clones were assayed for protein binding in a 1-point dot blot screen (+/−200 nM h-IL-23 and a separate screen at +/−200 nM h-IL-12). Subsequently, the Round 10 PN-IL-23 pool was re-cloned for further sequences, as well as the R12 PN-IL-23 pool, and the clones were assayed for protein binding in a 1 point do blot screen (+/−100 nM h-IL-23 or +/−200 nM h-IL-12).

[4] = target: T2, IL-12 (human, p35/p40 heterodimer) (Homo sapiens, UniProt P29459;P29460 SEQ:57-253,SEQ:23-328); assay: filter; 1X SHMCK, 0.1 mg/mL tRNA, RT; conditions: label: 5'-32P
Protocol: as §1, §2

[5] = target: T1, IL-23 (human, p19/p40 heterodimer); assay: cell_activity; Pathscan pSTAT3; conditions: tags: R&D Systems, carrier free
Protocol: Inhibition of IL-23-induced STAT3 phosphorylation was measured using the Pathscan® Phospho-STAT3 (Tyr705) Sandwich ELISA Kit (Cell Signaling Technology, Beverly, Mass.).
Similar to the TransAM™ Assay method previously described, the Pathscan® Phospho-STAT3 (Tyr705) Sandwich ELISA Kit detects endogenous levels of Phospho-STAT3 (Tyr705) protein by using a STAT3 rabbit monoclonal antibody which has been coated onto the wells of a 96-well plate. After incubation with cell lysates, both nonphospho- and phospho-STAT3 proteins are captured by the coated antibody. A phospho-STAT3 mouse monoclonal antibody is added to detect the captured phospho-STAT3 protein, and an HRP-linked anti-mouse antibody is then used to recognize the bound detection antibody. HRP substrate, TMB, is added to develop color, and the magnitude of optical density for this developed color is proportional to the quantity of phospho-STAT3 protein.
PHA Blasts were isolated and prepared as described above and treated with hIL-23 at a final constant concentration of 6 ng/mL (R&D Systems, Minneapolis, Minn.) to induce STAT3 activation, instead of using 3 ng/mL as previously described with the TransAM™ assay. Clones were screened by using a 6-point […] titration from 0 to 700 nM in 3 fold dilutions in combination with a constant IL-23 concentration of 6 ng/mL of IL-23 (R&D Systems, Minneapolis, Minn.) to induce STAT3 activation, instead of using 3 ng/mL as previously described with the TransAM™ assay. Lysates of treated cells were prepared using the buffers provided by the Pathscan kit, and the assay was run according to the manufacturer's instructions. IC₅₀s for the full length clones were calculated from the dose response curves.

[6] = target: T1, IL-23 (human, p19/p40 heterodimer); assay: filter; DPBS Ca Mg; conditions: tags: R&D Systems, carrier free
Protocol: The dot blot binding assay previously described was used to characterize the relative potency of the majority of the aptamers synthesized. For KD determination, chemically synthesized aptamers were purified using denaturing polyacrylamide gel electrophoresis, 5′end labeled with γ-³²P ATP and were tested for direct binding to full human IL-23. An 8 point protein titration was used in the dot blot binding assay (either {100 nM, 30 nM, 10 nM, 3 nM, 1 nM, 300 pM, 100 pM, 0 pM} or {10 nM, 3 nM, 1 nM, 300 pM, 100 pM, 30 pM, 10 pM, 0 pM}) in Dulbecco's PBS (with Mg⁺⁺ and Ca⁺⁺) with 0.1 mg/mL BSA. KD values were calculated by fitting the equation y=(max/(1+K/protein))+yint using KaleidaGraph (KaleidaGraph v. 3.51, Synergy Software). Sequences of the ARC979 derivatives synthesized, purified and assayed for binding to IL-23 as well as the results of the protein binding characterization are tabulated below in Tables 29 and 30.

[7] = target: T1, IL-23 (human, p19/p40 heterodimer); assay: filter; 1X PBS, tRNA, ssDNA, BSA, 30 min RT; conditions: tags: R&D Systems, carrier free; label: 32P
[8] = target: T2, IL-12 (human, p35/p40 heterodimer); assay: filter; 1X PBS, tRNA, ssDNA, BSA, 30 min RT; conditions: label: 32P

T1 sequence (Q9NPF7 20-189, chain 1 of 2): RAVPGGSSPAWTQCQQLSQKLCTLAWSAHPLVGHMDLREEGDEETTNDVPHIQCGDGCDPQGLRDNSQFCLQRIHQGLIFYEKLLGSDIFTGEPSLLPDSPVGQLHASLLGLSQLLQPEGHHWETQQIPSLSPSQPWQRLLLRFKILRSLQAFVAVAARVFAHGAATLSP
T1 sequence (P29460 23-328, chain 2 of 2): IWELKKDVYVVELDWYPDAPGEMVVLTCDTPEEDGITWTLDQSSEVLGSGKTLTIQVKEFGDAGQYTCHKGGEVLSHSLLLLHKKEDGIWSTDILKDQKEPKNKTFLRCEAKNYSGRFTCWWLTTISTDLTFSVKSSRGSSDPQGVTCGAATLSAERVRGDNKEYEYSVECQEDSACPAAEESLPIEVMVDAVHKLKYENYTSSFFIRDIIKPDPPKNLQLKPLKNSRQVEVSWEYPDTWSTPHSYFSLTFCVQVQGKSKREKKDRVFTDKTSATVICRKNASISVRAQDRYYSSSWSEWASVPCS
T2 sequence (P29459 23-219, chain 1 of 2): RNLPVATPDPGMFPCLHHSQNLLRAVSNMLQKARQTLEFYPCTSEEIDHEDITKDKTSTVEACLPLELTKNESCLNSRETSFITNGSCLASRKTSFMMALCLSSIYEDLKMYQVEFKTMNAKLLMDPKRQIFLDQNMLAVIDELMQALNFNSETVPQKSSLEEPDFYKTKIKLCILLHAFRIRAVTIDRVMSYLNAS
T2 sequence (P29460 23-328, chain 2 of 2): as the sequence (P29460 23-328, chain 2 of 2) above

B1: Type 1.5 (ssRNA)
RNA: GGAGUACGCCGAAAGGCGCUUCCGAAAGGACGUCCGUAAGGGAUACUCC
modifications: 2'-F all C and U (rRfY)
Kd [1]: 0.0314 µM

B2: rRmY clone SEQ 83 (ssRNA)
RNA: GGGAGAGGAGAGAACGUUCUACGCAGGCUGUCGUAGACAAACGAUGAAGUCGCGCUGUCGAUCGAUCGAUCGAUG
modifications: 2'-OMe all C and U (rRmY)
Kd [2]: 0.0082 µM

B3: AMX86-D11 (ssRNA)
RNA: GGGAAAAGCGAAUCAUACACAAGAUAGCGUCUAUGAUGGCGGAGAAGCAAGUGUAGCAUAACAGGCUCCGCCAGAGACCAACCGAGAA
modifications: 2'-F all C and U (rRfY)
Kd [3]: 0.199 µM | Kd [4]: 0.114 µM

B4: A10.min5 (ssRNA)
RNA: GGAGCAUACACAAGAAGUUUUUUGUGCUCUGAGUACUCAGCGUCCGUAAGGGAUAUGCUCC
modifications: 2'-F all C and U (rRfY)
Kd [1]: 0.0578 µM

B5: rRmY clone SEQ 80 (ssRNA)
RNA: GGGAGAGGAGAGAACGUUCUACAAGAUAUAAUUAAGGAUAAGUGCAAAGGAGACGCUGUCGAUCGAUCGAUCGAUG
modifications: 2'-OMe all C and U (rRmY)
Kd [2]: 3.79 µM

B6: rRmY clone SEQ 88 (ssRNA)
RNA: GGGAGAGGAGAGAACGUUCUACAUAAGCAGGCUCCGAUAGUAUUCGGGAAGUCGCUGUCGAUCGAUCGAUCGAUG
modifications: 2'-OMe all C and U (rRmY)
Kd [2]: 0.101 µM

B7: ARC1622 (mixed)
RNA: ACAGGCAAGUAAUUGGGGAGUGCGGGCGGGGUGU
modifications: 2'-OMe C,U and G16,G17,G24,G25,G30,G31; other A,G deoxy; PS 6-7,7-8,8-9,10-11,11-12,14-15; 3'-idT [PS 6-7,7-8,8-9,10-11,11-12,14-15; 2'-OMe at 2,6,10,13,14,16,17,21,23,24,25,27,30,31,32,34; other A,G deoxy; 3'-inverted dT at 35]
IC50 [5]: 0.009 µM | Kd [6]: 0.0003 µM

B8: ARC1626 (mixed)
RNA: B7 RNA
modifications: 2'-OMe C,U and G16,G17,G24,G25,G30,G31; other A,G deoxy; multiple PS; 3'-idT [2'-OMe C2,C6,U10,U13,U14,G16,G17,U21,C23,G24,G25,C27,G30,G31,U32,U34; other A,G deoxy; PS 2-3,3-4,4-5,6-7,7-8,8-9,10-11,11-12,14-15,17-18,18-19,19-20,21-22,25-26,27-28,28-29,32-33 (N = PS linkage, left out); 3'-inverted dT 35]
IC50 [5]: 0.012 µM

B9: ARC1755 (mixed)
RNA: B7 RNA
modifications: 2'-OMe C,U and most purines; PS 2-3,6-7,11-12,14-15; 3'-idT [2'-OMe C2,C6,U10,U13,U14,U21,C23,C27,U32,U34 and most purines (positions not stated); PS 2-3,6-7,11-12,14-15 (N = PS linkage, left out); 3'-inverted dT 35]
IC50 [5]: 0.068 µM | Kd [6]: 0.0008 µM

B10: ARC1625 (mixed)
RNA: B7 RNA
modifications: 2'-OMe C,U and G16,G17,G24,G25,G30,G31; other A,G deoxy; PS 32-33; 3'-idT [2'-OMe C2,C6,U10,U13,U14,G16,G17,U21,C23,G24,G25,C27,G30,G31,U32,U34; other A,G deoxy; PS 32-33 (N = PS linkage, left out); 3'-inverted dT 35]
IC50 [5]: 0.004 µM

B11: ARC1623 (mixed)
RNA: B7 RNA
modifications: 2'-OMe C,U and G16,G17,G24,G25,G30,G31; other A,G deoxy; PS 17-18,18-19,19-20,21-22; 3'-idT [2'-OMe C2,C6,U10,U13,U14,G16,G17,U21,C23,G24,G25,C27,G30,G31,U32,U34; other A,G deoxy; PS 17-18,18-19,19-20,21-22 (N = PS linkage, left out); 3'-inverted dT 35]
IC50 [5]: 0.005 µM

B12: ARC489 (mixed)
RNA: GGGAGAGGAGAGAACGUUCUACAGCGCCGGUGGGCGGGCAUUGGGUGGAUGCGCUGUCGAUCGAUCGAUCGAUG
modifications: 2'-deoxy A and G, 2'-OMe C and U (dRmY)
Kd [7]: 0.004 µM | Kd [8]: 0.0172 µM

B13: B10.min4 (ssRNA)
RNA: GGAGCAUACACAAGAAGUGCUUCAUGCGGCAAACUGCAUGACGUCGAAUAGAUAUGCUCC
modifications: 2'-F all C and U (rRfY)
Kd [1]: 0.0364 µM

B14: F11.min2 (ssRNA)
RNA: GGACAUACACAAGAUGUGCUUGAGUUAAAUCUCAUCGUCCCCGUUUGGGGAUAUGUC
modifications: 2'-F all C and U (rRfY)
Kd [1]: 0.065 µM

B15: AMX91-B8 (ssRNA)
RNA: GGGAAAAGCGAAUCAUACACAAGAAUCCUGGCUUCGCAUAGUGUAUGGGUAGUACGACAGCGCGUGCUCCGCCAGAGACCAACCGAGAA
modifications: 2'-F all C and U (rRfY)
Kd [3]: 0.0176 µM | Kd [4]: 0.409 µM

B16: AMX86-G10 (ssRNA)
RNA: GGGAAAAGCGAAUCAUACACAAGAGUCAUGGCUUACAAUUGAAACAAGAGCUCGCGUGACACAUGCUCCGCCAGAGACCAACCGAGAA
modifications: 2'-F all C and U (rRfY)
Kd [3]: 0.0737 µM | Kd [4]: 0.356 µM

B17: AMX84-C11 (ssRNA)
RNA: GGGAAAAGCGAAUCAUACACAAGAAUGGUCGGAAUCUCUGGCGCCACGCUGAGUAUAGACGGAAGCUCCGCCAGAGACCAACCGAGAA
modifications: 2'-F all C and U (rRfY)
Kd [3]: 0.0155 µM | Kd [4]: 0.286 µM

B18: rRmY clone SEQ 76 (ssRNA)
RNA: GGGAGAGGAGAGAACGUUCUACAACAAAGCAGGCUCAUAGUAAUAUGGAAGUCGCUGUCGAUCGAUCGAUCGAUG
modifications: 2'-OMe all C and U (rRmY)
Kd [2]: 0.0772 µM
